# Laboratory results from US8389575B2, “Control of enzymatic peracid generation” (E.I. du Pont de Nemours and Company, priority 2008, dated 2013).
# B1: B. pumilus PS213: acetyl xylan esterase with perhydrolase activity from Bacillus pumilus PS213 (SEQ ID NO: 10), cell extract of E. coli KLP18/pSW195 (protein, listed as Bacillus pumilis)
# chain: MQLFDLSLEELKKYKPKKTARPDFSDFWKKSLEELRQVEAEPTLESYDYPVKGVKVYRLTYQSFGHSKIEGFYAVPDQTGPHPALVRFHGYNASYDGGIHDIVNWALHGYATFGMLVRGQGGSEDTSVTPGGHALGWMTKGILSKDTYYYRGVYLDAVRALEVIQSFPEVDEHRIGVIGGSQGGALAIAAAALSDIPKVVVADYPYLSNFERAVDVALEQPYLEINSYFRRNSDPKVEEKAFETLSYFDLINLAGWVKQPTLMAIGLIDKITPPSTVFAAYNHLETDKDLKVYRYFGHEFIPAFQTEKLSFLQKHLLLST
# Columns and labels:
# [1] = Dependence of specific activity on pH for hydrolysis of triacetin by CE-7 esterases/perhydrolases (cell extracts of E. coli KLP18 transformants); format: biochemical; details: 200 mM triacetin, 25° C.
# Experimental: A cell extract of an E. coli transformant expressing perhydrolase from Thermotoga neapolitana (KLP18/pSW196), Thermotoga maritima MSB8 (KLP18/pSW207), Bacillus pumilus PS213 (KLP1S/pSW195), Bacillus subtilis BE1010 (KLP18/pSW189), Bacillus subtilis ATCC® 31954™ (KLP18/pSW194), or Bacillus licheniformis ATCC® 14580™ (KLP18/pSW191) was prepared by passing a suspension of cell paste (20 wt % wet cell weight) in 0.05 M potassium phosphate buffer (pH 7.0) containing dithiothreitol (1 mM) twice through a French press having a working pressure of 16,000 psi (˜110 MPa). The crude extract was then centrifuged at 20,000×g to remove cellular debris, producing a clarified cell extract that was assayed for total soluble protein (Bicinchoninic Acid Kit for Protein Determination, Sigma Aldrich catalog #BCA1-KT). A portion of the clarified Thermotoga maritima MSB8 or Thermotoga neapolitana perhydrolase-containing extract was additionally heated for 20 min at 75° C., followed immediately by cooling in an ice/water bath to 5° C. The resulting mixture was centrifuged to remove precipitated protein, and the supernatant collected and assayed for total soluble protein as before.
# Reactions (10 mL total volume) containing triacetin (200 mM) and cell extract supernatant (prepared as described above) were run at 25° C. and at a pH between 4.5 and 10.0, using the buffers and buffer concentrations listed in Table 5. The concentration of extract total protein (with or without heat-treatment to denature and precipitate E. coli-derived protein) was chosen to produce an ca. 50 mM decrease in triacetin concentration over 30 min (typically from 0.025 mg/mL to 0.40 mg/mL of total extract protein, dependent on the perhydrolase). A control reaction for each reaction condition was run to determine the concentration of triacetin hydrolyzed in the absence of added extract protein. Samples (100 μL) were removed at predetermined times and immediately added to 297 μL of dd H2O and 3 μL of 6N HCL. The resulting solution was mixed, then filtered using a 30,000 NMWL filter (Millipore) using a microcentrifuge for 2 min at 12,000 rpm. An aliquot of the filtrate (100 μL) was added to 150 μL of 0.417 mM N,N-diethyl meta-toluamide (external standard) in acetonitrile, and the resulting solution analyzed for triacetin by HPLC using a Supelco Discovery C8 column (25 cm×4.0 mm, 5 um; Supelco #59353-U40) and an isocratic mobile phase of 40% acetonitrile/60% distilled water at a flow rate of 1 mL/min. Triacetin was measured by UV detection at 225 nm.
# [2] = Peracetic acid production by perhydrolases, control by initial reaction pH in sodium citrate buffer; format: biochemical; details: triacetin 100 mM, 0.050 mg/mL extract total protein, 25° C.
# Experimental: A cell extract of a transformant expressing perhydrolase from Bacillus pumilus PS213 (KLP18/pSW195), Thermotoga maritima MSB8 (KLP18/pSW207), Thermotoga neapolitana (KLP18/pSW196), or Bacillus subtilis ATCC® 31954™ (KLP18/pSW194) was prepared by passing a suspension of cell paste (20 wt % wet cell weight) in 0.05 M potassium phosphate buffer (pH 7.0) containing dithiothreitol (1 mM) twice through a French press having a working pressure of 16,000 psi (˜110 MPa). The crude extract was then centrifuged at 20,000×g to remove cellular debris, producing a clarified cell extract that was assayed for total soluble protein (Bicinchoninic Acid Kit for Protein Determination, Sigma Aldrich catalog #BCA1-KT). The supernatant was frozen in dry ice and stored at −80° C.
# Reactions (10 mL total volume) containing triacetin, hydrogen peroxide and centrifuged cell extract supernatant (prepared as described above) in 50 mM sodium citrate buffer (initial pH 7.2 or 6.5) were run at 25° C. A control reaction for each reaction condition was run to determine the concentration of peracetic acid produced by chemical perhydrolysis of triacetin by hydrogen peroxide in the absence of added extract protein (data not shown). Determination of the concentration of peracetic acid in the reaction mixtures was performed according to the method described by Karst et al., supra.
# [3] = initial pH 6.5, sodium citrate 50 mM, H2O2 100 mM
# [4] = initial pH 6.5, sodium citrate 50 mM, H2O2 250 mM
# [5] = initial pH 7.2, sodium citrate 50 mM, H2O2 100 mM
# [6] = initial pH 7.2, sodium citrate 50 mM, H2O2 250 mM
molecule,measurement,setting,value
B1,specific activity (mmol triacetin/min/mg total extract protein),"[1]; pH 5.0, sodium acetate 0.15 M",1.8 mmol triacetin/min/mg total extract protein
same,specific activity (mmol triacetin/min/mg total extract protein),"[1]; pH 5.5, sodium acetate 0.15 M",3.5 mmol triacetin/min/mg total extract protein
same,specific activity (mmol triacetin/min/mg total extract protein),"[1]; pH 6.0, sodium citrate 0.15 M",4.2 mmol triacetin/min/mg total extract protein
same,specific activity (mmol triacetin/min/mg total extract protein),"[1]; pH 6.5, sodium citrate 0.15 M",11.6 mmol triacetin/min/mg total extract protein
same,specific activity (mmol triacetin/min/mg total extract protein),"[1]; pH 7.0, potassium phosphate 0.15 M",30.5 mmol triacetin/min/mg total extract protein
same,specific activity (mmol triacetin/min/mg total extract protein),"[1]; pH 7.5, potassium phosphate 0.15 M",33.7 mmol triacetin/min/mg total extract protein
same,specific activity (mmol triacetin/min/mg total extract protein),"[1]; pH 8.0, potassium phosphate 0.20 M",53.9 mmol triacetin/min/mg total extract protein
same,specific activity (mmol triacetin/min/mg total extract protein),"[1]; pH 8.5, Tris(hydroxymethyl)aminomethane 0.20 M",72.4 mmol triacetin/min/mg total extract protein
same,specific activity (mmol triacetin/min/mg total extract protein),"[1]; pH 9.0, Tris(hydroxymethyl)aminomethane 0.20 M",80.4 mmol triacetin/min/mg total extract protein
same,specific activity (mmol triacetin/min/mg total extract protein),"[1]; pH 9.5, glycine 0.20 M",71.1 mmol triacetin/min/mg total extract protein
same,"PAA, 1 min (ppm)",[2]; [3],170 ppm
same,"PAA, 5 min (ppm)",[2]; [3],310 ppm
same,"PAA, 30 min (ppm)",[2]; [3],830 ppm
same,"PAA, 1 min (ppm)",[2]; [4],281 ppm
same,"PAA, 5 min (ppm)",[2]; [4],652 ppm
same,"PAA, 30 min (ppm)",[2]; [4],1984 ppm
same,"PAA, 1 min (ppm)",[2]; [5],160 ppm
same,"PAA, 5 min (ppm)",[2]; [5],322 ppm
same,"PAA, 30 min (ppm)",[2]; [5],1010 ppm
same,"PAA, 1 min (ppm)",[2]; [6],465 ppm
same,"PAA, 5 min (ppm)",[2]; [6],1170 ppm
same,"PAA, 30 min (ppm)",[2]; [6],2525 ppm
